Results: FireProtDB (doi:10.1074/jbc.m110728200)

B1: Lysozyme C, P61626 (parent)
chain: MKALIVLGLVLLSVTVQGKVFERCELARTLKRLGMDGYRGISLANWMCLAKWESGYNTRATNYNAGDRSTDYGIFQINSRYWCNDGKTPGAVNACHLSCSALLQDNIADAVACAKRVVRDPQGIRAWVAWRNRCQNRDVRQYVQGCGV

Variants of: B1
Conditions: Homo sapiens; pH 2.6; Thermal; DSC; Gly-HCl 0.05 M; structure 1LZ1; whole UniProt chain shown
For MKALIVLGLVLLSVTVQGKVFERCELARTLKRLGMDGYRGISLANWMCLAKWESGYNTRATNYNAGDRSTDYGIFQINSRYWCNDGKTPGADNACHLSCSALLQDNIADAVACAKRVVRDPQGIRAWVAWRNRCQNRDVRQYVQGCGV [V92D], the Tm was 61.7 °C, the “unfolding enthalpy (calorimetric)” value was 103 kcal/mol and the “unfolding enthalpy (van 't Hoff)” value was 110 kcal/mol.

Same assay, conditions: Homo sapiens; pH 2.7; 64.9 °C; Thermal; DSC; Gly-HCl 0.05 M; structure 1LZ1; whole UniProt chain shown
For MKALIVLGLVLLSVTVQGKVFERCELARTLKRLGMDGYRGISLANWMCLAKWESGYNTRATNYNAGDRSTDYGIFQINSRYWCNDGKTPGADNACHLSCSALLQDNIADAVACAKRVVRDPQGIRAWVAWRNRCQNRDVRQYVQGCGV [V92D], the “ddG of mutation (higher = less stable)” value was 0.43 kcal/mol, the “heat capacity change of unfolding” value was 1.58 kcal/mol/K and the “unfolding enthalpy (calorimetric)” value was 107 kcal/mol.
In the case of MKALIVLGLVLLSVTVQGKVFERCELARTLKRLGMDGYRGISLANWMCLAKWESGYNTRATNYNAGDRSTDYGIFQINSRYWCNDGKTPGASNACHLSCSALLQDNIADAVACAKRVVRDPQGIRAWVAWRNRCQNRDVRQYVQGCGV [V92S], the “ddG of mutation (higher = less stable)” value is reported as 0.38 kcal/mol, the “heat capacity change of unfolding” value is reported as 1.22 kcal/mol/K and the “unfolding enthalpy (calorimetric)” value is reported as 108 kcal/mol.

Same assay, conditions: Homo sapiens; pH 2.7; Thermal; DSC; Gly-HCl 0.05 M; structure 1LZ1; whole UniProt chain shown
With MKALIVLGLVLLSVTVQGKVFERCELARTLKRLGMDGYRGISLANWMCLAKWESGYNTRATNYNAGDRSTDYGIFQINSRYWCNDGKTPGADNACHLSCSALLQDNIADAVACAKRVVRDPQGIRAWVAWRNRCQNRDVRQYVQGCGV [V92D] the Tm was 63.5 °C and the “change of melting temperature, mutant - wild type (higher = more stable)” value (“change of melting temperature, mutant” for short) was -1.4 °C.
In the case of MKALIVLGLVLLSVTVQGKVFERCELARTLKRLGMDGYRGISLANWMCLAKWESGYNTRATNYNAGDRSTDYGIFQINSRYWCNDGKTPGASNACHLSCSALLQDNIADAVACAKRVVRDPQGIRAWVAWRNRCQNRDVRQYVQGCGV [V92S], the Tm is reported as 64.9 °C, the “change of melting temperature, mutant” value is reported as 0 °C and the “heat capacity change of unfolding” value is reported as 1.22 kcal/mol/K. For the same variant, the “unfolding enthalpy (calorimetric)” value was 108 kcal/mol.
In the case of MKALIVLGLVLLSVTVQGKVFERCELARTLKRLGMDGYRGISLANWMCLAKWESGYNTRATNYNAGDRSTDYGIFQINSRYWCNDGKTPGAVNACHLSCSALLQDNIADAVACAKRVVRDPQGIRAWNAWRNRCQNRDVRQYVQGCGV [V128N], the Tm is reported as 65.1 °C and the “change of melting temperature, mutant” value is reported as 0.2 °C.

Same assay, conditions: Homo sapiens; pH 2.83; Thermal; DSC; Gly-HCl 0.05 M; structure 1LZ1; whole UniProt chain shown
In the case of MKALIVLGLVLLSVTVQGKVFERCELARTLKRLGMDGYRGISLANWMCLAKWESGYNTRATNYNAGDRSTDYGIFQINSRYWCNDGKTPGADNACHLSCSALLQDNIADAVACAKRVVRDPQGIRAWVAWRNRCQNRDVRQYVQGCGV [V92D], the Tm is reported as 65.9 °C, the “unfolding enthalpy (calorimetric)” value is reported as 107 kcal/mol and the “unfolding enthalpy (van 't Hoff)” value is reported as 115 kcal/mol.
With MKALIVLGLVLLSVTVQGKVFERCELARTLKRLGMDGYRGISLANWMCLAKWESGYNTRATNYNAGDRSTDYGIFQINSRYWCNDGKTPGASNACHLSCSALLQDNIADAVACAKRVVRDPQGIRAWVAWRNRCQNRDVRQYVQGCGV [V92S] the Tm was 66 °C, the “unfolding enthalpy (calorimetric)” value was 109 kcal/mol and the “unfolding enthalpy (van 't Hoff)” value was 115 kcal/mol.
For MKALIVLGLVLLSVTVQGKVFERCELARTLKRLGMDGYRGISLANWMCLAKWESGYNTRATNYNAGDRSTDYGIFQINSRYWCNDGKTPGAVNACHLSCSALLQDNIADAVACAKRVVRDPQGIRAWNAWRNRCQNRDVRQYVQGCGV [V128N], the Tm was 67.2 °C, the “unfolding enthalpy (calorimetric)” value was 113 kcal/mol and the “unfolding enthalpy (van 't Hoff)” value was 115 kcal/mol.

Same assay, conditions: Homo sapiens; pH 2.98; Thermal; DSC; Gly-HCl 0.05 M; structure 1LZ1; whole UniProt chain shown
In the case of MKALIVLGLVLLSVTVQGKVFERCELARTLKRLGMDGYRGISLANWMCLAKWESGYNTRATNYNAGDRSTDYGIFQINSRYWCNDGKTPGADNACHLSCSALLQDNIADAVACAKRVVRDPQGIRAWVAWRNRCQNRDVRQYVQGCGV [V92D], the Tm is reported as 68.1 °C, the “unfolding enthalpy (calorimetric)” value is reported as 112 kcal/mol and the “unfolding enthalpy (van 't Hoff)” value is reported as 118 kcal/mol.

Same assay, conditions: Homo sapiens; pH 3.1; Thermal; DSC; Gly-HCl 0.05 M; structure 1LZ1; whole UniProt chain shown
For MKALIVLGLVLLSVTVQGKVFERCELARTLKRLGMDGYRGISLANWMCLAKWESGYNTRATNYNAGDRSTDYGIFQINSRYWCNDGKTPGADNACHLSCSALLQDNIADAVACAKRVVRDPQGIRAWVAWRNRCQNRDVRQYVQGCGV [V92D], the Tm was 70.1 °C, the “unfolding enthalpy (calorimetric)” value was 115 kcal/mol and the “unfolding enthalpy (van 't Hoff)” value was 123 kcal/mol.

Same assay, conditions: Homo sapiens; pH 3.25; Thermal; DSC; Gly-HCl 0.05 M; structure 1LZ1; whole UniProt chain shown
For MKALIVLGLVLLSVTVQGKVFERCELARTLKRLGMDGYRGISLANWMCLAKWESGYNTRATNYNAGDRSTDYGIFQINSRYWCNDGKTPGADNACHLSCSALLQDNIADAVACAKRVVRDPQGIRAWVAWRNRCQNRDVRQYVQGCGV [V92D], the Tm was 72.5 °C, the “unfolding enthalpy (calorimetric)” value was 120 kcal/mol and the “unfolding enthalpy (van 't Hoff)” value was 127 kcal/mol.

Same assay, conditions: Homo sapiens; pH 2.61; Thermal; DSC; Gly-HCl 0.05 M; structure 1LZ1; whole UniProt chain shown
In the case of MKALIVLGLVLLSVTVQGKVFERCELARTLKRLGMDGYRGISLANWMCLAKWESGYNTRATNYNAGDRSTDYGIFQINSRYWCNDGKTPGASNACHLSCSALLQDNIADAVACAKRVVRDPQGIRAWVAWRNRCQNRDVRQYVQGCGV [V92S], the Tm is reported as 62.1 °C, the “unfolding enthalpy (calorimetric)” value is reported as 105 kcal/mol and the “unfolding enthalpy (van 't Hoff)” value is reported as 110 kcal/mol.

Same assay, conditions: Homo sapiens; pH 3.28; Thermal; DSC; Gly-HCl 0.05 M; structure 1LZ1; whole UniProt chain shown
In the case of MKALIVLGLVLLSVTVQGKVFERCELARTLKRLGMDGYRGISLANWMCLAKWESGYNTRATNYNAGDRSTDYGIFQINSRYWCNDGKTPGASNACHLSCSALLQDNIADAVACAKRVVRDPQGIRAWVAWRNRCQNRDVRQYVQGCGV [V92S], the Tm is reported as 72.2 °C, the “unfolding enthalpy (calorimetric)” value is reported as 117 kcal/mol and the “unfolding enthalpy (van 't Hoff)” value is reported as 122 kcal/mol.

Same assay, conditions: Homo sapiens; pH 2.64; Thermal; DSC; Gly-HCl 0.05 M; structure 1LZ1; whole UniProt chain shown
In the case of MKALIVLGLVLLSVTVQGKVFERCELARTLKRLGMDGYRGISLANWMCLAKWESGYNTRATNYNAGDRSTDYGIFQINSRYWCNDGKTPGAVNACHLSCSALLQDNIADAVACAKRVVRDPQGIRAWNAWRNRCQNRDVRQYVQGCGV [V128N], the Tm is reported as 64 °C, the “unfolding enthalpy (calorimetric)” value is reported as 108 kcal/mol and the “unfolding enthalpy (van 't Hoff)” value is reported as 109 kcal/mol.

Same assay, conditions: Homo sapiens; pH 3.04; Thermal; DSC; Gly-HCl 0.05 M; structure 1LZ1; whole UniProt chain shown
For MKALIVLGLVLLSVTVQGKVFERCELARTLKRLGMDGYRGISLANWMCLAKWESGYNTRATNYNAGDRSTDYGIFQINSRYWCNDGKTPGAVNACHLSCSALLQDNIADAVACAKRVVRDPQGIRAWNAWRNRCQNRDVRQYVQGCGV [V128N], the Tm was 70.6 °C, the “unfolding enthalpy (calorimetric)” value was 118 kcal/mol and the “unfolding enthalpy (van 't Hoff)” value was 118 kcal/mol.

Same assay, conditions: Homo sapiens; pH 3.13; Thermal; DSC; Gly-HCl 0.05 M; structure 1LZ1; whole UniProt chain shown
In the case of MKALIVLGLVLLSVTVQGKVFERCELARTLKRLGMDGYRGISLANWMCLAKWESGYNTRATNYNAGDRSTDYGIFQINSRYWCNDGKTPGAVNACHLSCSALLQDNIADAVACAKRVVRDPQGIRAWNAWRNRCQNRDVRQYVQGCGV [V128N], the Tm is reported as 71.7 °C, the “unfolding enthalpy (calorimetric)” value is reported as 120 kcal/mol and the “unfolding enthalpy (van 't Hoff)” value is reported as 122 kcal/mol.
